The target in the series is von Willebrand factor full length (Homo sapiens) (UniProt P04275). Briefly: filter. The following applies: 3'-idT.

pKd: −log10 of the molar value.

Regarding “CGUGCAGUGCCGGCCGTGCGGTGCCUCCGUCACG [ARC1532]”, where the note is “2'-OMe/deoxy composite, single PS, internal PEG, 19.3% bound at 100 nM vWF”, the pKd was 8.59.

In turn, “CGGCCGTGCGGTGCCUCCGUCACGUGCAGUGCCG [ARC1533]” gave a negative logarithm of the Kd (pKd) (2'-OMe/deoxy composite, single PS, internal PEG, 31.7% bound at 100 nM vWF) of 8.40.

Turning to “GCGUGCAGUGCCGGCCGTGCGGTGCCUCCGUCACGC [ARC1527]”, the negative-log Kd (pKd) (2'-OMe/deoxy composite, single PS, internal PEG, 14.1% bound at 100 nM vWF) was 8.47.

For the setting “2'-OMe/deoxy composite, single PS, internal PEG, 10.2% bound at 100 nM vWF”, “GCGUGCAGUGCCGGCCGTGCGGTGCCUCCGUCACGC [ARC1528]” gave a pKd of 8.38.

For the sequence “GGCGTGCAGTGCCGGCCGTGCGGTGCCTCCGTCACGCC [ARC1029]”, for the setting “internal PEG spacer after GGCGTGCAGTGCC, DPBS, 0.1 mg/mL BSA, RT”, the pKd is 8.85.

Under “internal PEG spacer after GCGTGCAGTGCCT, DPBS, 0.1 mg/mL BSA, RT”, “GCGTGCAGTGCCTAGGCCGTGCGGTGCCTCCGTCACGCC [ARC1028]” gave a negative logarithm of the Kd (pKd) of 8.96.

“CGUGCAGUGCCGGCCGTGCGGTGCCUCCGUCACG [ARC1531]” gave a pKd (2'-OMe/deoxy composite, single PS, internal PEG, 20.0% bound at 100 nM vWF) of 8.82.

As usually defined, the pKd is the Kd on a negative log10 scale, so that one unit is a factor of ten. Higher therefore signals a low Kd.
